Measurements reported in US6589934B1, “Kv2.1 antagonists” (SmithKline Beecham Corporation, priority 1997, dated 2003).

Molecular target: T1, human kv2.1 (Homo sapiens, UniProt Q14721)
T1 construct: A HindIII-Notl fragment containing full length 2.1 was isolated from pBS/kv2.1 and subcloned to pcDNA3 for expression; expressed in transfected cells
T1 sequence (Q14721 1-858): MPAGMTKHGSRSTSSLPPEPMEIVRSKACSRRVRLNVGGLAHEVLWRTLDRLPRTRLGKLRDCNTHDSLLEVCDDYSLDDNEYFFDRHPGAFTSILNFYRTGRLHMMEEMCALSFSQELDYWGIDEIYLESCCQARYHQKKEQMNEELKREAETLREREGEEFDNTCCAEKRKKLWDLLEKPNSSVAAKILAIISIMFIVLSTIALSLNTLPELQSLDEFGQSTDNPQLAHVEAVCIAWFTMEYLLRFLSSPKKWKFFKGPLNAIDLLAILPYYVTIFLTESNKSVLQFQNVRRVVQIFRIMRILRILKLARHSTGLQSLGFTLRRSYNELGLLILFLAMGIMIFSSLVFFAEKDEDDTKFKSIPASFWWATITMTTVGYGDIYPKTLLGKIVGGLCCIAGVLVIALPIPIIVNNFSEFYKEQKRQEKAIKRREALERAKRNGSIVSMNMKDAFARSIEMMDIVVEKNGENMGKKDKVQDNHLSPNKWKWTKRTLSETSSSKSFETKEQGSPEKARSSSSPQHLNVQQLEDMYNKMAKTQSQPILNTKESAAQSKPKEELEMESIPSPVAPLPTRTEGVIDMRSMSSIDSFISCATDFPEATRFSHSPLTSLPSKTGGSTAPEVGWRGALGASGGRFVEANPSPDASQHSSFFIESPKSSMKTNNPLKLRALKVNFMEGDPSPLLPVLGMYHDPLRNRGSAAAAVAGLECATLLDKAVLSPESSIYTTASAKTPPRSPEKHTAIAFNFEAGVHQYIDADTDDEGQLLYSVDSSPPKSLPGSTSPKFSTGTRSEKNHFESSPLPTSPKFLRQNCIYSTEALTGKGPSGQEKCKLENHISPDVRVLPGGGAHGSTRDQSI
Test: Whole cell patch clamp block of Kv2.1 in stably expressing CHO cells
Assay type: cell-based
Settings: CHO cells stably expressing Kv2.1, whole cell patch clamp
Excerpt: Full length cDNA of human kv2.1 was amplified from human brain polyA RNA by PCR. Oligo primers used for PCR amplification were designed according to the GeneBank accession# X68302 . The sequences of the two primers are: (5′ PCR primer) 5′-[…] (SEQ ID NO: 1), (3′ PCR primer) 5′-[…] (SEQ ID NO: 2). The cDNA was subcloned into pBS and sequenced. A HindIII-Notl fragment containing full length 2.1 was isolated from pBS/kv2.1 and subcloned to pcDNA3 for expression. The clone was transferred to pcDNA3 under the CMV promotor. […] Specifically, 1.5 μg of plasmid DNA (1.2 μg of Kv2.1 Plasmid and 0.3 μg of GFP plasmid Green Lantern™ (GIBCO)) was pre-incubated with 100 μl of DMEM/F12 and 12 μl of lipofectamine for a minimum of 15 minutes. Following incubation 1.4 ml of DMEM/F12 was added and the mixture overlayed on CHO cells (70-90% confluent) in a 6 well tray (1.5 ml/well). After 6-8 hours incubation an additional 1.5 ml of DMEM/F12 media containing 10% FBS was added to the transfection reaction. After a further overnight incubation the cells were removed from the 6 well plate with […] and plated at single cell density (10% Confluency) in 6 well plates contianing 25 mm glass coverslips. After overnight incubation, GFP containing cells were patched for current.
Stable CHO lines were prepared by using the same transfection protocol as above excluding the GFP DNA. […]

Molecule | IC50
hanatoxin (ECRYLFGGCKTTSDCCKHLGCKFRDKYCAWDFTFS) [reference compound] | ~0.06 µM
CN1C[C@@H]2CN(CCCCc3ccc4c(c3)OCCO4)C[C@H](C1)[C@@H]2OC(=O)c1ccc(Cl)cc1 [Example 4] | ~0.3 µM
